Measurements taken from PMC10842940, “Establishment of dsDNA-dsDNA interactions by the condensin complex” (Molecular cell, 2023).

How the values were obtained:
[1] = molecular target: T1, Cut3^Smc4 (fission yeast condensin SMC subunit) (S. pombe, UniProt P41004 1-1324); assay: cross-linking; sulfo-SDA cross-link mass spectrometry (CLMS) of the purified five-subunit condensin complex with equimolar 124 bp linear dsDNA and 0.5 mM ADP·BeF3 (DNA-gripping state); CL buffer, 30°C 30 min, UV 365 nm on ice; 1% FDR at residue-pair level; conditions: both partners purified
T1 construct: Cut3 (Smc4), S. pombe condensin SMC subunit; cDNA cloned into an S. cerevisiae expression vector; source: S. cerevisiae (w303, pep4 deleted), co-overexpressed with the other four condensin subunits from GAL1-10 promoters; in cell extract, and purified as the complex (IgG-agarose, 3C protease elution, heparin, Superose 6)
T1 sequence (looked up): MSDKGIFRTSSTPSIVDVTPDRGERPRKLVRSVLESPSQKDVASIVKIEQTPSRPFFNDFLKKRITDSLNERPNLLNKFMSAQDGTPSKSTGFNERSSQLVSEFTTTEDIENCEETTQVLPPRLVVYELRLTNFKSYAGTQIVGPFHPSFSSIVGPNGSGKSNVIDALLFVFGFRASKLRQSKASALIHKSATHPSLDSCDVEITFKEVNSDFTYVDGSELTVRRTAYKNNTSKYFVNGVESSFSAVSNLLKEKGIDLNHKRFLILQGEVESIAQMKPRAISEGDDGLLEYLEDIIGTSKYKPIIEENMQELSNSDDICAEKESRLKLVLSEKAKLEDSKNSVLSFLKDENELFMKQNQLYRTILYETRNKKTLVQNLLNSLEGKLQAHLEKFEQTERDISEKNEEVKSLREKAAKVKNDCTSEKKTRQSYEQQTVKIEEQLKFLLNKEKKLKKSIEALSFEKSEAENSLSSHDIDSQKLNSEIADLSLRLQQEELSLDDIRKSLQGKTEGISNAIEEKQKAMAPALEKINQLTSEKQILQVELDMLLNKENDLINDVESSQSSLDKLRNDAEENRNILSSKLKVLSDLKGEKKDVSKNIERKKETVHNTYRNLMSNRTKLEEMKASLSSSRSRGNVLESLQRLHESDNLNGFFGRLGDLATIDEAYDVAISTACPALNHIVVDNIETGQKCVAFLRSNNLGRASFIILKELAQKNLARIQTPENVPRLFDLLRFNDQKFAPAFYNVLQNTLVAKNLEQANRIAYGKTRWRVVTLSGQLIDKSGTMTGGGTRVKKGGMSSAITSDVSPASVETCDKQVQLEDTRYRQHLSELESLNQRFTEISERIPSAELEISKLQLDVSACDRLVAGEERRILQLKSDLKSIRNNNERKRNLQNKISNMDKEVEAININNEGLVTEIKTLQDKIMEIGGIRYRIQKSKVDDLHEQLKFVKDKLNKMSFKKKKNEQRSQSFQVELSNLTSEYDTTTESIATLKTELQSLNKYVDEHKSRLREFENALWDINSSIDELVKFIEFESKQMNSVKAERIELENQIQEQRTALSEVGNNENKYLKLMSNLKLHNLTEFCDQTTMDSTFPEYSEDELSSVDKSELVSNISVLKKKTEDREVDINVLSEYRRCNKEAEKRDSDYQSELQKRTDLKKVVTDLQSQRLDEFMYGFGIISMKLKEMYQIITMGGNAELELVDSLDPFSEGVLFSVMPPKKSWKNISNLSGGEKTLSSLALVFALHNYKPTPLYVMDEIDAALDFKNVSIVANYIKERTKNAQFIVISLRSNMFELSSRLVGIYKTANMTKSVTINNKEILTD

[2] = molecular target: T2, Cut14^Smc2 (fission yeast condensin SMC subunit) (S. pombe, UniProt P41003 1-1172); assay: as above; conditions: both partners purified
T2 construct: Cut14 (Smc2), S. pombe condensin SMC subunit; cDNA cloned into an S. cerevisiae expression vector; The Pk tag is used for the condensin immunoprecipitation in the DNA assays; also called Cut14-3xPk; source: S. cerevisiae (w303, pep4 deleted), co-overexpressed with the other four condensin subunits from GAL1-10 promoters; in cell extract, and purified as the complex (IgG-agarose, 3C protease …)
T2 sequence (looked up): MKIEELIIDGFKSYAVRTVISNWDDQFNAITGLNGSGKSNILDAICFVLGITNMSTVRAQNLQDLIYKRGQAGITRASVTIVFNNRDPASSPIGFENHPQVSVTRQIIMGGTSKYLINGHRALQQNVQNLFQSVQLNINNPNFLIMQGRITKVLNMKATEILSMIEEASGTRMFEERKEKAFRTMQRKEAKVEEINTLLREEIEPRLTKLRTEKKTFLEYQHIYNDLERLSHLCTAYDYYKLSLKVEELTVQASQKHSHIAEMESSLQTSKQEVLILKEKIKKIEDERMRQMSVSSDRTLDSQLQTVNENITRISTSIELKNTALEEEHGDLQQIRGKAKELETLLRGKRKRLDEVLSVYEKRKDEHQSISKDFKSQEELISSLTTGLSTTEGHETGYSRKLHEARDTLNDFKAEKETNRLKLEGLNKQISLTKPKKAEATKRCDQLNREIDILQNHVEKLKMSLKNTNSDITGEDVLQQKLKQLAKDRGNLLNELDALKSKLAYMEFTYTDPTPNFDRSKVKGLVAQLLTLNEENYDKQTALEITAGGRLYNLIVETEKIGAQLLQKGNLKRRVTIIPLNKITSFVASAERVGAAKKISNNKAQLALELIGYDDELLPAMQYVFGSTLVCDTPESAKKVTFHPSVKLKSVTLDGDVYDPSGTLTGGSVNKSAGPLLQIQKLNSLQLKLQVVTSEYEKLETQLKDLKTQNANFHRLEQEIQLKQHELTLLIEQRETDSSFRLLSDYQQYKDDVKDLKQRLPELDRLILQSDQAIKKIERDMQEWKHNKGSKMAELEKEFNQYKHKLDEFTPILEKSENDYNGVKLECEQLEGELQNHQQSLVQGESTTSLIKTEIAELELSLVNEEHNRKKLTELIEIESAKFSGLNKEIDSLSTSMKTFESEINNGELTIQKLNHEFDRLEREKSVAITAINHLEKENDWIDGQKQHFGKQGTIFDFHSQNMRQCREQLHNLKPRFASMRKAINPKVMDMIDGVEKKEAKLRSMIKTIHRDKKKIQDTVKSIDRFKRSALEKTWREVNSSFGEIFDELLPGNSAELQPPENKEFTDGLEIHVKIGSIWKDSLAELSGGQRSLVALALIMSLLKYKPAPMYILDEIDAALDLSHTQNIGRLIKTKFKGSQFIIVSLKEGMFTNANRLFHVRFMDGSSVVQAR

binding result [1]: binds | binding result [2]: binds
B1: Cnd1^Ycs4 (fission yeast condensin HEAT-repeat subunit) (natural protein, S. pombe, UniProt O94679 1-1158, looked up)
chain: MSLDLLSRLKKYIHDEENSDLDSIYAECENAGLTAVVNDVIDTLLLGTSSCFDEDCLEKLFAICSHFADLSSSVRNKVYDLLTSNISSESAILEDMISANATDFTVPQTNLETTGIAFQLTVNSLSSSNQLSVIRSSTNTVKGRKKNPTTNSNWNGISHVNALLDAIITLFQKKLSRVWTTSSERDMFLSLFLKPIYTLMESEINIKNASFRSRLFNIIGLAVQFHNHTTAAETNIIQNLQYFEHLSEYAADLVHIVTVQFNSVTLAEGIIRTLCSLEFNDNDVKGPKQVALFLVRLSSLIPNLCLKQLTQLVKLLDSESYTLRCAIIEVLANVVIDQIHDEAQNEMSESVPATVQSLMDLLSERLLDISPYCRTKVLHVFIKIFDLPIKYPRKRQEIAELVIRCLQDRSSHVRRNAIKLFSKLLTTHPFSVMHNGLLTRNIWEKGLSIIEEQLNSLQPKQQEKVVDSELEVDENLLEDATMIQDDESHEGESHLENSLSEYVDSVPAEEIVKVNLTKRFYLEALQYIDIVEAGAKIISQLLFAKNKSEVIESMDFFVFCNSFGISSSKLYIKKMIHLIWVKGTSDEGNNIQNHVLSCYKTLFFEPPPNSGTNEAANYIARNLISLTYDASLAELTSLEQMLCILMKDGYFSHLVITKLWQVYSYQKKDISRTQRRGSIIVIGMLALGNTDVVMQGLDHLIQIGLGPPGLEDLVLARYTCIAIKRIGKDASGSSNINFPNSHTLCQKLCMLLLRPSFSEEWFGLEEQAIEAIYAVAKHPDELCTNIILLLTKQLFKPSNHENTTSNDDHAMDEDLDDSPEEETLKDEEEIGIRLAHLIFLVGHVAIKQLVYIEYCEAEFKRRKADAERLAVQNSNNPINGQETSEYDLITGTSEDDFSEAMTFIRERELLYGENSLLSRFAPLVVELCSNHKSHNNQSLLLAASLTLSKFMCLSNNFCMEHLPLLITILEKCDNPIIRNNLVIGLADLTVCFNHFIDEISEYLYRRLMDEESSVKKTCFMTLAFLILAGQIKVKGQLGIMARSLEDEDARISDLARMFFTDFAAKDNSVYNNFIDIFSVLSRSAEEQDEDDAKFKRIIRFLTSFIEKERHTKQLAERLAARLDRCKTQRQWDHVVYALSLLPHKADNIQKLIDDGYHE
notes: Cnd1 (Ycs4), S. pombe condensin HEAT-repeat subunit; cDNA cloned into an S. cerevisiae expression vector; source: S. cerevisiae (w303, pep4 deleted), co-overexpressed with the other four condensin subunits from GAL1-10 promoters; in cell extract, and purified as the complex (IgG-agarose, 3C protease elution, heparin, Superose 6)
